According to article PMC12285236, “Xylanolytic metabolism is regulated by coordination of transcription factors XynR and XylR in extremely thermophilic Caldicellulosiruptorales”:

T1: XylR (Anaerocellum (f. Caldicellulosiruptor) …, UniProt Q44406 1-399)
T1 sequence: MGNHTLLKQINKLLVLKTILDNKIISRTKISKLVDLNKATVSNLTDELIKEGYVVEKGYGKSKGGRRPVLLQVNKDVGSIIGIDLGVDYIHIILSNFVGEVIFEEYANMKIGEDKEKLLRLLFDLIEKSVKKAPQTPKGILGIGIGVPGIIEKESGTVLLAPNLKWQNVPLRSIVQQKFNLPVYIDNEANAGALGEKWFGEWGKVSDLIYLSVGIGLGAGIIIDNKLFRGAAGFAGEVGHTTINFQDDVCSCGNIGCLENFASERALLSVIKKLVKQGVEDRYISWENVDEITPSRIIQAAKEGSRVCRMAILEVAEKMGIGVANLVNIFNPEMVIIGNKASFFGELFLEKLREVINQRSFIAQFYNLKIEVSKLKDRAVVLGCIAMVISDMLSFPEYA

B1: xynUVW FP probe (dsDNA)
DNA 1: TAAATATATAAATAGTTTGTTTAAGAAATAAACCAAAAGGAGTGATT
DNA 2: AATCACTCCTTTTGGTTTATTTCTTAAACAAACTATTTATATATTTA
B2: xylA BLI probe (dsDNA)
DNA 1: ATTATAGATATTAGTTTGTTTAATAAACAAACTAAGTACACGTACT
DNA 2: AGTACGTGTACTTAGTTTGTTTATTAAACAAACTAATATCTATAAT

Experiments:
[1] = target: XynR (Anaerocellum (f. Caldicellulosiruptor) bescii) (UniProt B9MPD1); assay: fluorescence polarization; details: 20 mM Tris-HCl, 100 mM NaCl, 0.02% Tween 20, pH 7.4; FP: 5 nM probe, 30 nM-3 uM protein, 22 C; BLI: 100 nM DNA immobilized on streptavidin sensors
XylR [2] = target: T1, XylR; assay: fluorescence polarization; Hill coefficient <1; 20 mM Tris-HCl, 100 mM NaCl, 0.02% Tween 20, pH 7.4; FP: 5 nM probe, 30 nM-3 uM protein, 22 C; BLI: 100 nM DNA immobilized on streptavidin sensors; details: protein: recombinant; tags: C-terminal 6xHis; chain copies: 2; label: 5' 6-FAM on strand 1; blunt
XylR [3] = target: T1, XylR; assay: BLI; 20 mM Tris-HCl, 100 mM NaCl, 0.02% Tween 20, pH 7.4; FP: 5 nM probe, 30 nM-3 uM protein, 22 C; BLI: 100 nM DNA immobilized on streptavidin sensors; details: protein: recombinant; tags: C-terminal 6xHis; chain copies: 2; label: 5' biotin on strand 1; blunt

Molecule	Kd [1] [nM]	further results
ATTGACTAGTAAACGCTTACGATATATT (double strand) [XDL FP probe]	161	
ATTTTCATGAAATCGCTTTCCTATCTAA / TTAGATAGGAAAGCGATTTCATGAAAATA [xynMNC FP probe]	150	
TAATAATCGAAATCGCTTACAATTCCTG (double strand) [xynR-xylB FP probe]	172	
TGAGGTTAGAAAGCGGTTTCAAGCAATT (double strand) [xyl3A FP probe]	169	
B1		Kd (XylR [2]): 165 nM
B2		binding result (XylR [3]): binds
